Publication PMC7949049 (The Journal of Biological Chemistry, 2020)
Read-outs that look alike come from different tables or passages of the source. Positions of bridges follow the written chain, without caps; N, C: chain ends. Non-standard residues stand in square brackets, D forms with d. Residues, ends and D or L forms follow the SMILES beside them. No end group written: not given here. *: point of attachment. 5FAM = O=C1OC2(c3ccc(O)cc3Oc3cc(O)ccc32)c2ccc(C(=O)*)cc21; S5 = C=CCCC[C@](C)(N)C(=O)O

Tests used:
RhoA·GMPPNP = target: T1, RhoA·GMPPNP (Homo sapiens, UniProt P61586, F25N/Q63L); assay: Direct-binding fluorescence polarization, RhoA; conditions: 20 nM FAM-labelled non-solubilized peptide; n ≥ 2; ± standard error from curve fitting; read-out: Kd RhoA, FP (Table S1)
T1 construct: RhoA (pGEX-2T, 1–186, F25N/Q63L); GST (cleaved yes); made in house
T1 sequence (P61586 1-186 F25N/Q63L): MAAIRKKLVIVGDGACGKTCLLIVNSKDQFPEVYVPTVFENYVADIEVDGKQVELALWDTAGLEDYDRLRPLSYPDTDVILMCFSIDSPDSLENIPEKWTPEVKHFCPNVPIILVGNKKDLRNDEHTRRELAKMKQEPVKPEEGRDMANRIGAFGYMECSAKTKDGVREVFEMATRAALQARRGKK
Procedure: (§1) FP experiments were performed on a BMG Labtech Pherastar fluorimeter at 298 K with excitation at 485 nm and emission at 520 nm as described previously ([34]), using 20 nM FAM-labeled peptide. Plates were read after 30 min incubation at room temperature. Data were fitted to a single-site binding model using nonlinear regression analysis in GraphPad prism 8.4 to obtain Kd values and their standard errors.

Cdc42 = target: T2, Cdc42 (Homo sapiens, UniProt P60953, Q61L); assay: Direct-binding fluorescence polarization, Cdc42; conditions: 20 nM FAM-labelled non-solubilized peptide; n ≥ 2; ± standard error from curve fitting; read-out: Kd Cdc42, FP (Table S1)
T2 construct: Cdc42 (pGEX-2T, 1–184, Q61L); GST (cleaved yes); made in house
T2 sequence (P60953 1-184 Q61L, species assumed): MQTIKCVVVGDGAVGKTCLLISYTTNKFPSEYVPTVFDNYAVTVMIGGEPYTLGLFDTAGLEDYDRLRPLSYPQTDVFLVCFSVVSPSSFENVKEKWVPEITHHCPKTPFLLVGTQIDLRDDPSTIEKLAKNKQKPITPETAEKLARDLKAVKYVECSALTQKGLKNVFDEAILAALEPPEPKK
Procedure: as §1

RalA·GTP = target: T3, RalA·GTP (Homo sapiens, UniProt P11233, Q72L); assay: Competition SPA, RalA against immobilized His-tagged wild-type RLIP76 RBD; type: binding
T3 construct: RalA (pMAT10, residues 1–184, Q72L); His6-MBP (cleaved yes); made in house; host or cells: E. coli (inferred from the pMAT10/pGEX vectors)
T3 sequence (P11233 1-184 Q72L): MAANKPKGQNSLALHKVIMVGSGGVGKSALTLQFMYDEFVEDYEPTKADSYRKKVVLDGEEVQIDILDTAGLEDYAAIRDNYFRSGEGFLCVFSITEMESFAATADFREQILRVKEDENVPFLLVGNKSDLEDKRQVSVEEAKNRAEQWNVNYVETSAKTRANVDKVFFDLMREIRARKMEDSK

[1] = system: V5-RalB Q72L / flag-RLIP76 complex; assay: Coimmunoprecipitation of RalB/RLIP76 in HEK293T cell lysate; type: biochemical; conditions: V5-RalB Q72L and flag-RLIP76, peptide 1 h at 4 °C, anti-V5 IP, western blot
Procedure: (§2) 3 × 10^6 HEK293T cells were seeded in 10 cm dishes 48 h before the end point, in DMEM supplemented with 10% FBS. […] Dishes were lysed in 1 ml lysis buffer (50 mM Tris-HCl pH 7.8, 150 mM NaCl, 1% Triton, 1 mM EDTA, 1 mM sodium orthovanadate, 1 mM β-glycerophosphate, and protease inhibitor cocktail (Sigma-Aldrich). Lysates (1 ml) were centrifuged at 17,000g for 20 min and added to Protein G Dynabeads (30 μl, Invitrogen) preincubated with anti-V5 antibody (1 μg, R960-25, Invitrogen). Peptides, at the concentrations indicated in the results, were added and incubated with rotation for 1 h at 4 °C. Precipitated complexes were washed with lysis buffer (3 × 500 μl). Samples were resolved by SDS-PAGE and transferred to PVDF membranes (Immobilon-P). Membranes were probed by immunoblotting with the following primary antibodies: anti-V5-HRP (R961-25, Invitrogen), anti-flag-HRP (A8592, Sigma-Aldrich), and anti-Sec5 (EPR9420, Abcam).

[2] = system: V5-RalB Q72L / endogenous Sec5 complex; assay: Coimmunoprecipitation of RalB/Sec5 in HEK293T cell lysate; type: biochemical; conditions: peptide 1 h at 4 °C, anti-V5 IP, western blot
Procedure: as §2

[3] = target: SP1 stapled peptide (RLIP76) 423-446 (Homo sapiens) (UniProt Q15311); conditions: cited from earlier work
SP1 stapled peptide (RLIP76) 423-446 (Homo sapiens), sequence (Q15311 423-446): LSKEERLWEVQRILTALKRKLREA

[4] = target: SP1 stapled peptide (RLIP76) 423-446 (Homo sapiens) (UniProt Q15311); conditions: cited from earlier work; remark: listed apart in the source
[5] = target: SP1 stapled peptide (RLIP76) 423-446 (Homo sapiens) (UniProt Q15311); conditions: cited from earlier work; remark: listed apart in the source
RalA (Homo sapiens) = RalA (Homo sapiens) (UniProt P11233); conditions: cited from earlier work
R-Ras (Homo sapiens) = R-Ras (Homo sapiens) (UniProt P10301); conditions: cited from earlier work
R-Ras (Homo sapiens), sequence (P10301 1-215): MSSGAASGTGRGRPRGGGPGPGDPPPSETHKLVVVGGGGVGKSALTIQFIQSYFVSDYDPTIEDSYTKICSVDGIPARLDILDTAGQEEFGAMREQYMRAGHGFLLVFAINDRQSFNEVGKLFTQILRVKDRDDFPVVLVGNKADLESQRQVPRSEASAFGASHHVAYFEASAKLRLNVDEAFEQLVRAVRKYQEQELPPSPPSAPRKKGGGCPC

RalB (Homo sapiens) = RalB (Homo sapiens) (UniProt P11234); conditions: cited from earlier work
[6] = target: RalA (residues 1–184, Q72L) (UniProt P11233); assay: scintillation proximity assay (competition); His-tagged wild-type RLIP76 RBD immobilised on SPA beads, fixed [3H]GTP·RalA (100 nM) or [3H]GTP·RalB (250 nM), competitor RBD or peptide titrated; pure competition model, apparent Kd (Ki)
[7] = target: T4, RalB (residues 1–185, Q72L) (UniProt P11234 1-185, Q72L); assay: as above; conditions: both partners purified
T4 construct: Loaded with [3H]GTP for SPA, with GMPPNP for ITC, FP and crystallisation; also called RalB·GTP; source: expressed from pMAT10 as His6-MBP fusion, cleaved from its tag as described previously
T4 sequence (looked up): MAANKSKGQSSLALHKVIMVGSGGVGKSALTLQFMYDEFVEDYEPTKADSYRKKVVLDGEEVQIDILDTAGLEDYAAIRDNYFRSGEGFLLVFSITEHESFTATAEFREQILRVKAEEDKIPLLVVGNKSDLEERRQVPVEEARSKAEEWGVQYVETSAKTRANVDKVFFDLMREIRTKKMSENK

[8] = target: T5, RalA (residues 1–184, Q72L) (UniProt P11233 1-184, Q72L); assay: fluorescence polarisation; 20 nM FAM-labeled peptide, varying concentrations of GMPPNP-bound small GTPases, 298 K, single-site model; conditions: both partners purified
T5 construct: RalA small GTPase, residues 1-184, constitutively active Q72L; Loaded with [3H]GTP for SPA, with GMPPNP or GDP for fluorescence polarisation; also called RalA·GTP; [3H]-GTP RalA; source: expressed from pMAT10 as His6-MBP fusion, cleaved from its tag as described previously
T5 sequence (looked up): T3 sequence (P11233 1-184 Q72L)

[9] = target: T4, RalB (residues 1–185, Q72L); assay: as above; conditions: both partners purified
[10] = target: T5, RalA (residues 1–184, Q72L); assay: scintillation proximity assay (competition); GST-tagged Sec5 RBD immobilised on SPA beads, fixed [3H]-GTP RalA, peptides or RLIP76 RBD titrated; pure competition model, apparent Kd (Ki); conditions: both partners purified
[11] = target: T5, RalA (residues 1–184, Q72L); assay: scintillation proximity assay (competition); His-tagged wild-type RLIP76 RBD immobilised on SPA beads, fixed [3H]GTP·RalA (100 nM) or [3H]GTP·RalB (250 nM), competitor RBD or peptide titrated; pure competition model, apparent Kd (Ki); conditions: both partners purified

Molecule: CC[C@H](C)[C@H](NC(=O)[C@H](CCCNC(=N)N)NC(=O)[C@H](CC(C)C)NC(=O)[C@@H](NC(=O)[C@H](CCC(=O)O)NC(=O)[C@H](Cc1c[nH]c2ccccc12)NC(=O)[C@H](CC(C)C)NC(=O)[C@]1(C)CCCC=CCCC[C@](C)(NC(=O)[C@H](CC(C)C)NC(=O)c2ccc3c(c2)C(=O)OC32c3ccc(O)cc3Oc3cc(O)ccc32)C(=O)N[C@@H](CCCCN)C(=O)N[C@@H](CCC(=O)O)C(=O)N[C@@H](Cc2c[nH]cn2)C(=O)N1)C(C)C)C(=O)N[C@@H](CC(C)C)C(=O)N[C@H](C(=O)N[C@@H](C)C(=O)N[C@@H](CC(C)C)C(=O)N[C@@H](CCCNC(=N)N)C(=O)N[C@@H](CCCNC(=N)N)C(=O)N[C@@H](CCCCN)C(=O)N[C@@H](CC(C)C)C(=O)N[C@@H](CCCNC(=N)N)C(=O)N[C@@H](CCC(=O)O)C(=O)N[C@@H](C)C(N)=O)[C@@H](C)O [HLR-SP1] (5FAM-L[S5]KEH[S5]LWEVLRILTALRRKLREA-NH2; staple 2-6)
- Kd (RhoA·GMPPNP): 0.0125 ± 0.0022 µM
- Kd (Cdc42): 6.11 ± 1.67 µM

Molecule: CC[C@H](C)[C@H](NC(=O)[C@H](CCCNC(=N)N)NC(=O)[C@H](CCC(N)=O)NC(=O)[C@H](CCC(=O)O)NC(=O)[C@H](CCC(=O)O)NC(=O)[C@H](C)NC(=O)[C@H](CC(C)C)NC(=O)[C@]1(C)CCCC=CCCC[C@](C)(NC(=O)[C@@H](N)CC(C)C)C(=O)N[C@@H](CCCCN)C(=O)N[C@@H](CCC(=O)O)C(=O)N[C@@H](CCC(=O)O)C(=O)N1)C(=O)N[C@@H](CCCCN)C(=O)N[C@H](C(=O)N[C@@H](C)C(=O)N[C@@H](CCC(=O)O)C(=O)N[C@@H](CCCCN)C(=O)N[C@@H](CCCNC(=N)N)C(=O)N[C@@H](CCCCN)C(=O)N[C@@H](CCCCN)C(=O)N[C@@H](CCCNC(=N)N)C(=O)N[C@@H](CCC(=O)O)C(=O)N[C@@H](C)C(N)=O)[C@@H](C)O [W430A-sol] (H-L[S5]KEE[S5]LAEEQRIKTAEKRKKREA-NH2; staple 2-6; N-terminus assumed)
- Kd (RalA·GTP): > 100 µM
- Kd RalA·GTP, Competition SPA (RLIP76) (RalA·GTP; peptides titrated into [3H]-GTP RalA (100 nM) and His-tagged wild-type RLIP76 RBD on SPA beads, apparent Kd (Ki), ± standard error from curve fitting): very weak binding
- disruption of RalB–RLIP76 complex in cell lysate [1]: did not inhibit complex formation
- disruption of RalB–Sec5 complex in cell lysate [2]: did not inhibit complex formation

Molecule: R-Ras (from UniProt P10301)
- Kd [3]: 30 µM

Molecule: RalA (from UniProt P11233)
- Kd [4]: 14 µM

Molecule: RalB (from UniProt P11234)
- Kd [5]: 5 µM

Molecule: SP1 stapled peptide 423-446 (from UniProt Q15311)
- Kd (RalA (Homo sapiens)): 14 µM
- Kd (R-Ras (Homo sapiens)): 30 µM
- Kd (RalB (Homo sapiens)): 5 µM

B1: RLIP76 RBD WDASQSR mutant (domain or fragment)
chain: ETQAGIKEEIRRQEFLLNSLHRDLQGGIKDLSKWDRAWEVSQILSALRRKLREA
notes: RLIP76 residues 423-446 (helix α2); Selected by CIS display; source: E. coli, recombinant; cleaved from its tag
- Kd [6]: 3.02 µM
- Kd [7]: 6.97 µM

B2: FAM-labeled L-sol stapled peptide (peptide)
chain: L[S5]KEE[S5]LWEELRIKTAEKRKKREA-NH2
modifications: staple 2-6; not fully specified (N-terminus); also: 5-carboxyfluorescein (FAM) label, site not given here
- Kd [8]: 19.8 µM
- Kd [9]: 24.4 µM

B3: FAM-labeled HLR-sol stapled peptide (peptide)
chain: L[S5]KEH[S5]LWEELRIKTAERRKKREA-NH2
modifications: staple 2-6; not fully specified (N-terminus); also: 5-carboxyfluorescein (FAM) label, site not given here
- Kd [8]: 16.6 µM
- Kd [9]: 21.1 µM

B4: L-sol stapled peptide (peptide)
chain: L[S5]KEE[S5]LWEELRIKTAEKRKKREA-NH2
modifications: staple 2-6; N-terminus assumed
SMILES: CC[C@H](C)[C@H](NC(=O)[C@H](CCCNC(=N)N)NC(=O)[C@H](CC(C)C)NC(=O)[C@H](CCC(=O)O)NC(=O)[C@H](CCC(=O)O)NC(=O)[C@H](Cc1c[nH]c2ccccc12)NC(=O)[C@H](CC(C)C)NC(=O)[C@]1(C)CCCC=CCCC[C@](C)(NC(=O)[C@@H](N)CC(C)C)C(=O)N[C@@H](CCCCN)C(=O)N[C@@H](CCC(=O)O)C(=O)N[C@@H](CCC(=O)O)C(=O)N1)C(=O)N[C@@H](CCCCN)C(=O)N[C@H](C(=O)N[C@@H](C)C(=O)N[C@@H](CCC(=O)O)C(=O)N[C@@H](CCCCN)C(=O)N[C@@H](CCCNC(=N)N)C(=O)N[C@@H](CCCCN)C(=O)N[C@@H](CCCCN)C(=O)N[C@@H](CCCNC(=N)N)C(=O)N[C@@H](CCC(=O)O)C(=O)N[C@@H](C)C(N)=O)[C@@H](C)O
- Kd [10]: 1.81 µM
- Kd [11]: 3.09 µM
